# Assay results reported in publication PMC11686378.
# Legend:
# [1] = molecular target: DNA primase PriSL (PriS-PriL heterodimer) from P. abyssi, in solution (Pyrococcus abyssi) (UniProt Q9V292)
# [2] = molecular target: Replication Protein A (RPA) heterotrimer from Pyrococcus abyssi, wild type (Pyrococcus abyssi); assay: BLI; RPA or RPA^ΔWH nucleoprotein filaments on a 3'-TEG-biotin 50-nt ssDNA held on streptavidin sensors; PriSL (1.56-100 nM) or PolD (15.62-1000 nM) in solution; steady-state analysis; 25 °C, buffer E with 0.2 mg/ml BSA
# [3] = molecular target: DNA primase PriSL (PriS-PriL heterodimer) from P. abyssi, in solution (Pyrococcus abyssi) (UniProt Q9V292); remark: listed apart in the source
# Chain of DNA primase PriSL (PriS-PriL heterodimer) from P. abyssi, in solution (Pyrococcus abyssi) (Q9V292 whole entry, chain 1 of 2): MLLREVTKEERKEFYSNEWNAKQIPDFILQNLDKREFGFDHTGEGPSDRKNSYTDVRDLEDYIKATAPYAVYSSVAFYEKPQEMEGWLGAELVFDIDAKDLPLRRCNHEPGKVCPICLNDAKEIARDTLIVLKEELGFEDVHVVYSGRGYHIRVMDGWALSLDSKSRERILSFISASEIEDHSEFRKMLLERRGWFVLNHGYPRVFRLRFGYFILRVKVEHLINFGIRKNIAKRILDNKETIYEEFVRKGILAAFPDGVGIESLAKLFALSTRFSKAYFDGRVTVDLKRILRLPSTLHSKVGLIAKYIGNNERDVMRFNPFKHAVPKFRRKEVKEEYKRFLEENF
# Chain of DNA primase PriSL (PriS-PriL heterodimer) from P. abyssi, in solution (Pyrococcus abyssi) (Q9V291 whole entry, chain 2 of 2, further chain): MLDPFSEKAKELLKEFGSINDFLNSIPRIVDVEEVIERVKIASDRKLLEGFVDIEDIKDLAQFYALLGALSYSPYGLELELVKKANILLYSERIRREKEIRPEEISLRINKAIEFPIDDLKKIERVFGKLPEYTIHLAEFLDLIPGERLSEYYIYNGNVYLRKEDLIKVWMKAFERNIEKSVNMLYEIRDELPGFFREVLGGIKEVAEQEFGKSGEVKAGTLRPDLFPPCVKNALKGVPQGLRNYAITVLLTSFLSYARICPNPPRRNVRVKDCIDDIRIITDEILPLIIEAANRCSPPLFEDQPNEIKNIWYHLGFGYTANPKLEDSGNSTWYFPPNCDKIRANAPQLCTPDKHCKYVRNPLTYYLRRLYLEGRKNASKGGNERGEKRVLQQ
substance,measurement,setting,value
"RPA^ala-linker, RPA with all 12 glutamic acid residues of the Rpa2 linker substituted with alanine (complex)","PriSL primer extension, reduction in long extension products against wild-type RPA, over the RPA concentrations tested",[1],45%
"Replicative DNA polymerase PolD (DP1-DP2 heterodimer) from P. abyssi, in solution (complex)",Kd,[2],136 nM
"Replication Protein A (RPA) heterotrimer from Pyrococcus abyssi, wild type (complex)","PriSL primer extension, long products (≥70 nt), with RPA from 0.05 to 0.8 µM",[3],5 fold
